Reference: patent publication US8637043B2, “Compositions useful as ligands for the formyl peptide receptor like 1 receptor and methods of use thereof” (Chemocentryx, Inc., priority 2001, dated 2014)
“Also recorded” adds a separate entry of the source. Marks after values point to notes of the source that are not given here. Ends that are not written are not given here.

T1: human FPRL1 (Homo sapiens, UniProt P25090)
T1 construct: Full length cDNA encoding FPRL1 was cloned, using the polymerase chain reaction (PCR), from genomic DNA isolated from undifferentiated HL-60 cells; expressed in transfected cells; linearized FPRL1/pcDNA3.1, electroporation
T1 sequence (P25090 1-351): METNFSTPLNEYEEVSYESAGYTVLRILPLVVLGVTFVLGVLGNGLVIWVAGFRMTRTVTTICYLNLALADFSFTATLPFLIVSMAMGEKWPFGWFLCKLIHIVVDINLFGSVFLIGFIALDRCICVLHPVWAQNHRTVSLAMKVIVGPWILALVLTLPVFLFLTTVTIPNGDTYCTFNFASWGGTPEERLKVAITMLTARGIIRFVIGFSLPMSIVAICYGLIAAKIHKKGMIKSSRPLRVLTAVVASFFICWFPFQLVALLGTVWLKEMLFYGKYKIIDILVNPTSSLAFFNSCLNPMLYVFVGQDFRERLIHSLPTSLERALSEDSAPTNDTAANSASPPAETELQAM


Key:
human FPRL1 = molecular target: T1, human FPRL1; assay: Migration of FPRL1-L1.2 cells; format: cell-based; settings: for migration of FPRL1 expressing cells: FPRL1-L1.2 cells, ChemoTx
Experimental: (§1) Migration assays were performed on monocytes and neutrophils. Human monocytes and neutrophils (prepared as in Exampe 2) were harvested and resuspended in chemotaxis medium (CM). The CM consisted of Hank's buffered salt solution (Gibco, Mass.) containing CaCl2 (1 mM) and MgSO4 (1 mM) with added 0.1% BSA (Sigma, St. Louis, Mo.). The assays were performed in 96-well ChemoTx® microplates (Neuroprobe, Mass.). Leukotactin, MlP-1α and chemokines (CKβ8(1-99), CKβ8(25-99), CKβ8-1(1-116) or CKβ8-1(25-116), prepared as in Example 1) were added to the lower wells (final volume 29 μL), and 20 μL of cell suspension (5×10^6 cells/mL for monocytes; 2.5×10^6 cells/mL for neutrophils) added to the polycarbonate filters (5 μm pore size for monocytes; 3 μm pore size for neutrophils). After incubation for 90 min (37° C., 100% humidity, 5% CO2), cells were removed from the upper surface of the filter by scraping. Cells that migrated into the lower chamber were quantified using the Quant cell proliferation assay kit (Molecular Probes, Oreg.).
The ability of CKβ8-1 (25-116) to elicit the migration of the FPRL1 expressing cells was examined. Test conditions were as in Example 5.
The chemotactic activity of chemokines (CKβ8(1-99) and CKβ8(25-99), SHAAGtides (SEQ ID NO:1 and SEQ ID NO:2) and W peptides 1 and 2 (obtained as in Example 6) on FPRL1-L1.2 cells was determined in migration assays. The chemokines were prepared as in Example 1. The SHAAGtide sequences SEQ ID NO:1 and SEQ ID NO:2 were prepared as in Example 8. FPRL1-L1.2 cells were prepared as in Example 6.
The migration assays were performed in 96-well ChemoTx® microplates (Neuroprobe) using the protocol described in Example 5.

human neutrophils = assay: Migration assay (ChemoTx), human neutrophils; format: cell-based; settings: 90 min, 100 nM
Experimental: as §1, with “Leukotactin, MlP-1α and chemokines (CKβ8(1-99), CKβ8(25-99), CKβ8-1(1-116) or CKβ8-1(25-116), prepared as in Example 1) were added to the lower wells (final volume 29 μL), and 20 μL of cell suspension (5×10^6 cells/mL for monocytes; 2.5×10^6 cells/mL for neutrophils) added to the polycarbonate filters (5 μm pore size for monocytes; 3 μm pore size for neutrophils).” left out
The above peptides were prepared as in previous examples.

mononuclear cells = assay: Mononuclear cell infiltration into the dermis after intradermal injection; format: in vivo, Rhesus macaques; settings: for cell infiltration, in words: summary of Table 18
Experimental: Different amounts (8, 20, or 60 μg in 100 μl PBS) of different polypeptides (see Table 18) were injected intradermally in Rhesus macaques under anesthesia. Twenty-four and 48 hours later, 6 mm skin punch biopsies were taken using aseptic technique and then bisected. One portion of the biopsy was embedded in OCT compound, flash frozen in liquid nitrogen and stored at −70° C. The other portion was immersed in formalin and embedded in paraffin wax; subsequently, sections cut on a microtome were stained with hematoxylin and eosin and then microscopically examined for cell infiltration into the dermis (Table 18). As a negative control, monkeys were injected with PBS lacking any polypeptides.
Mononuclear cell infiltration was scored on a scale of 0 to 5:0, very mild perivascular mononuclear inflammatory infiltration throughout the dermis; 1, a mild perivascular mononuclear inflammatory infiltrate seen throughout the dermis; 2, a mild/moderate perivascular mononuclear inflammatory infiltrate seen throughout the dermis; 3, a moderate perivascular mononuclear inflammatory infiltrate seen throughout the dermis; 4, an extensive perivascular mononuclear inflammatory infiltrate seen throughout the dermis; 5, a florid perivascular mononuclear inflammatory infiltrate seen throughout the dermis. intermediate scores are indicates, e.g., “⅔” represents a score between 2 and 3.

[1] = 60 μg intradermally, 24 hours, scale 0 (very mild) to 5 (florid)

migration of FPRL1 expressing cells (human FPRL1)	EC50 (human FPRL1; FPRL1 expressing L1.2 cells, read-out: half-maximal cell migration)	Molecule	migration of neutrophils (human neutrophils)	Mononuclear cell infiltration score (mononuclear cells; 8 μg, 24 hours)	Mononuclear cell infiltration score (mononuclear cells; 8 μg, 48 hours)	Mononuclear cell infiltration score (mononuclear cells; 20 μg, 24 hours)	Mononuclear cell infiltration score (mononuclear cells; 20 μg, 48 hours)	Mononuclear cell infiltration score (mononuclear cells; [1])	Mononuclear cell infiltration score (mononuclear cells; 60 μg, 48 hours)	cell infiltration, in words (mononuclear cells)	migration of FPRL1 expressing cells (human FPRL1; listed as CKβ8-1 (25-116))	migration of neutrophils (human neutrophils; listed as CKβ8-1 (25-116))
migrated the transfectants		MLWRRKIGPQMTLSHAAG [SEQ ID NO: 1]	produced migration									
		MLWRRKIGPQMTLSHAAY [SEQ ID NO: 6]		0	0	2*	0	0	0	moderately strong infiltration in one of the two animals		
migrated the transfectants	30 nM	CKβ8-1(25-116): novel NH2-terminal truncated form of CKβ8-1, SEQ ID NO: 16, human recombinant chemokine (protein, listed as Homo sapiens) MLWRRKIGPQMTLSHAAGFHATSADCCISYTPRSIPCSLLESYFETNSECSKPGVIFLTKKGRRFCANPSDKQVQVCMRMLKLDTRIKTRKN	produced migration			0	0	0	0	no infiltration	migrated in a bell-shaped dose-dependent manner; also recorded: higher than observed with the synthetic peptides WKYMVm and WKYMVM	robust response
